# Laboratory results: patent publication US20160168253
# T1: peptide substrate MCA-RPPGFSAFK(Dnp)-OH (R&D Systems Cat. No. ES005)
# T1 chain: RPPGFSAFK
# B1: Neprilysin (R&D Systems, Cat. No 1182-ZNC) (protein)
# chain: YDDGICKSSDCIKSAARLIQNMDATTEPCTDFFKYACGGWLKRNVIPETSSRYGNFDILRDELEVVLKDVLQEPKTEDIVAVQKAKALYRSCINESAIDSRGGEPLLKLLPDIYGWPVATENWEQKYGASWTAEKAIAQLNSKYGKKVLINLFVGTDDKNSVNHVIHIDQPRLGLPSRDYYECTGIYKEACTAYVDFMISVARLIRQEERLPIDENQLALEMNKVMELEKEIANATAKPEDRNDPMLLYNKMTLAQIQNNFSLEINGKPFSWLNFTNEIMSTVNISITNEEDVVVYAPEYLTKLKPILTKYSARDLQNLMSWRFIMDLVSSLSRTYKESRNAFRKALYGTTSETATWRRCANYVNGNMENAVGRLYVEAAFAGESKHVVEDLIAQIREVFIQTLDDLTWMDAETKKRAEEKALAIKERIGYPDDIVSNDNKLNNEYLELNYKEDEYFENIIQNLKFSQSKQLKKLREKVDKDEWISGAAVVNAFYSSGRNQIVFPAGILQPPFFSAQQSNSLNYGGIGMVIGHEITHGFDDNGRNFNKDGDLVDWWTQQSASNFKEQSQCMVYQYGNFSWDLAGGQHLNGINTLGENIADNGGLGQAYRAYQNYIKKNGEEKLLPGLDLNHKQLFFLNFAQVWCGTYRPEYAVNSIKTDVHSPGNFRIIGTLQNSAEFSEAFHCRKNSYMNPEKKCRVW
# Target: T1, peptide substrate MCA-RPPGFSAFK(Dnp)-OH …
protein,measurement,value
B1,"Km [µM] (apparent Km, hydrolysis of fluorogenic peptide substrate)",3.2 µM
same,Vmax,2930 s⁻¹
